Results: article PMC3170320, “Minimal Antizyme Peptide Fully Functioning in the Binding and Inhibition of Ornithine Decarboxylase and Antizyme Inhibitor” (PLoS ONE, 2011)

Target: human ornithine decarboxylase, wild type (human) (UniProt P11926)
Sequence (P11926 whole entry): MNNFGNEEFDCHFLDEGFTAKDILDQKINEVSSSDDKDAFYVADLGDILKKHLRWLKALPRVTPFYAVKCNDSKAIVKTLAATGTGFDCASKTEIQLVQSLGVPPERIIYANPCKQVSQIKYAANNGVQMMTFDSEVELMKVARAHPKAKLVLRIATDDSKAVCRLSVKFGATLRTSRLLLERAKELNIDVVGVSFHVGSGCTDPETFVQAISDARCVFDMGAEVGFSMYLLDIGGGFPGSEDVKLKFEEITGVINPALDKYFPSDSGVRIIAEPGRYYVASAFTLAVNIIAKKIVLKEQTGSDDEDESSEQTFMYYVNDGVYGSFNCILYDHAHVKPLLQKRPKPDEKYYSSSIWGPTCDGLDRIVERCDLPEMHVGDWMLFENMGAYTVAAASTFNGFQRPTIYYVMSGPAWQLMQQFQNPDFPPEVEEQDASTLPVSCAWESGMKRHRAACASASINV

Sequence of human antizyme peptide AZ_114-228 (P54368 114-228): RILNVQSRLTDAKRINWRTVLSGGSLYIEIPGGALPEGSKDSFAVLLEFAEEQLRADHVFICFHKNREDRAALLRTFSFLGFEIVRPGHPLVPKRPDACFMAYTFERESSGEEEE
Sequence of human antizyme peptide AZ_100-124 (P54368 100-124): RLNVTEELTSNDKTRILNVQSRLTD
Sequence of human antizyme peptide AZ_106-228 (P54368 106-228): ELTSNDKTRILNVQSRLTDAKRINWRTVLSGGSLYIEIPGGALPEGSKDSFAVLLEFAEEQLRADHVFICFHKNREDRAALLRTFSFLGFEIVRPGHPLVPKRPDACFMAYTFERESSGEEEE
Sequence of human antizyme peptide AZ_126-228 (P54368 126-228): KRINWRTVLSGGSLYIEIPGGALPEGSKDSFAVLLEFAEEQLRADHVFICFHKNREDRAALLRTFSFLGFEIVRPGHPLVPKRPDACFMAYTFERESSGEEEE
Sequence of human antizyme peptide AZ_95-169 (P54368 95-169): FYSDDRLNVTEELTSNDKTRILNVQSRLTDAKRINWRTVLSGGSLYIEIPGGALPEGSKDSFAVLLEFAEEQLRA
Sequence of human antizyme peptide AZ_100-135 (P54368 100-135): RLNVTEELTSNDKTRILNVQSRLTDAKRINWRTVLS
Sequence of human antizyme peptide AZ_87-228 (P54368 87-228): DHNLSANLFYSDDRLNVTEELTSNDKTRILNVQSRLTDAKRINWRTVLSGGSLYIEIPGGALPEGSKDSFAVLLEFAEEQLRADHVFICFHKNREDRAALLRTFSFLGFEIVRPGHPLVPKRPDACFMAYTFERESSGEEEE

Substance | IC50 of inhibition of ODC enzyme activity (ODC 0.19 µM), without AZI
human antizyme peptide AZ_87-228 (from UniProt P54368 87-228) (domain or fragment) | 170 nM
human antizyme peptide AZ_100-124 (from UniProt P54368 100-124) (domain or fragment) | 820 nM
human antizyme peptide AZ_95-169 (from UniProt P54368 95-169) (domain or fragment) | 370 nM

Other lines, results leading:

IC50 of inhibition of ODC enzyme activity (ODC 0.19 µM), without AZI | Substance
970 nM | human antizyme peptide AZ_114-228 (from UniProt P54368 114-228) (domain or fragment)
370 nM | human antizyme peptide AZ_106-228 (from UniProt P54368 106-228) (domain or fragment)
860 nM | human antizyme peptide AZ_100-135 (from UniProt P54368 100-135) (domain or fragment)
1190 nM | human antizyme peptide AZ_126-228 (from UniProt P54368 126-228) (domain or fragment)
